Reference: the DeepSol protein solubility set

test: soluble on expression in E. coli; label from the status in PepcDB or PDB records

Sequence	soluble on expression in E. coli
MPLFKERNCSVSIVLDSRTRRKNAYEFPLSLRFTIDRKFFYLTVGSSFSEKKFSDICNATKCKSENYKLQKEWKDTFVPKYKKVLSNLNKGGILTFEMVRQCIIGEDVVLSEEETTKSQSFISIWEQVINGFKTDDGGARFTTAESYECALKSFRKILGANTIKGFCISAAEIQKWKDGMHNGVKDENGAVVGKISDTTVGIYLRCCRAVWNRCVHEGFLKDIPYPFSNKKEKGLVSIPKSAKRKQNFLNVAQMTELYNLFVSKEYPEHWTEEYTQRAHYSLGLFLAQYLCNGFNMADAGRLTYDNYYYKTDGKAFRFNRKKTSRRSADGSEVIVPIIPPLQYVLDEIAAPPTRDGFVFPDILKGAETEELRRKYTVQENSNVKDRVIKICHEALHWDKSICPSGTWCRHSFATNLHNAGVDMDYISESMGHASSDHAITQIYIEHYPLDIQMQNNSKLLNLGETSERDALLAKLANMSTEELAKLFA	not soluble
MPLLDLLRPVSDEELRVLSERNPGWQFERLADGRLIVSPTGGESGRIRAAVLGPLYRWNEARGLGVVFDASTGFKLPDGSVLAPDAAFLLGKRWQALSQEAREGFPPLAPDAVFEVRSRSQGLEELREKAAWYLANGVRLVVLLDPYLHRVEVFRPGGVEGHQGPERVPLDPGLPGFALETRGLFLP	soluble
MPLSPILRQILQQLAAQLQFRPDMDVKTVREQFEKSSLILVKMANEPIHRVEDITIPGRGGPIRARVYRPRDGERLPAVVYYHGGGFVLGSVETHDHVCRRLANLSGAVVVSVDYRLAPEHKFPAAVEDAYDAAKWVADNYDKLGVDNGKIAVAGDSAGGNLAAVTAIMARDRGESFVKYQVLIYPAVNLTGSPTVSRVEYSGPEYVILTADLMAWFGRQYFSKPQDALSPYASPIFADLSNLPPALVITAEYDPLRDEGELYAHLLKTRGVRAVAVRYNGVIHGFVNFYPILEEGREAVSQIAASIKSMAVA	soluble
MPLVGQNVFKSSVTEYDAQTPVVYTVYNEVHQDLLNNTVFLKALADAIDSEIQAAREGKASLLANLQSIRLALQSGSANFGGPAGTTITHNLGTTNFRVSITPTANPDGYLGEIWVVKSSNTMTVFNSGDFRGAFDYQIFKN	not soluble
MPMPNLPKELVEEILSFVPATYLKRLSATCKPWNRLIHNDKRFARKHYDNAAKEFLVFMMRKNFRIIRRGVNLHGADPSAEVKGELTLPDPYFKNSADEFHIDRVFHCDGLLLCTSKLERRMVVWNPLTGETKWIQTHEEGDNFFLGYSQEDKNISCKKSYKIMGFYRSGSKVWEYDFNSDSWRVLNGILPNWYFDKSYKCVSLKGNTYMLAGAVTDMGFDLSLQSYDFSTEKFAPVSLPVPSQARSLNGANRLSVVRGEKLALLYRRDKRSKAEIWVTNKIDDTTEGAVSWTKVLELDLSRELHALFTSNFLVDEEKKVFICCVSWKEDEDENKSNKVYIVGEDNIVKEIDSGEDATSGCEPTILSLYVPSLVYM	soluble
MPMRLQKSTMCGLYAVLELAANPDRQVSAGDIADKYDISLNHLAKVLRALVRARLIESVRGPGGGYRFAGNPKRVTLLDIIALFEDTGLDLQEAASDDHEESRALHKVLRDIDEIAMTTLRSVSITSLLKVIDTERRKTERGPNGASARHSSAGRA	not soluble
MPNPFSKGWKYLTASLDNKIEENADPVIQIKQAAEAAKKQHADIEQQAASVIGNRNQLQMKLNRLLKDQQSIQEKARQALSLSDSATDPAEQHKYLNAAEVYASQLVGVESEIEQTTTLHQQAEQAAEQATQQVKQSEARLHEQLSQINELTTQAQQAKMQEAAVAASDQINSIDPDRDVPTMDSIREKIERRYADALGSQELMQSSMNERIHEIEATTSERDMRANAKLDAIRAQMRGELPAGSEETEPPADK	not soluble
MPNSEPASLLELFNSIATQGELVRSLKAGNASKDEIDSAVKMLVSLKMSYKAAAGEDYKADCPPGNPAPTSNHGPDATEAEEDFVDPWTVQTSSAKGIDYDKLIVRFGSSKIDKELINRIERATGQRPHHFLRRGIFFSHRDMNQVLDAYENKKPFYLYTGRGPSSEAMHVGHLIPFIFTKWLQDVFNVPLVIQMTDDEKYLWKDLTLDQAYGDAVENAKDIIACGFDINKTFIFSDLDYMGMSSGFYKNVVKIQKHVTFNQVKGIFGFTDSDCIGKISFPAIQAAPSFSNSFPQIFRDRTDIQCLIPCAIDQDPYFRMTRDVAPRIGYPKPALLHSTFFPALQGAQTKMSASDPNSSIFLTDTAKQIKTKVNKHAFSGGRDTIEEHRQFGGNCDVDVSFMYLTFFLEDDDKLEQIRKDYTSGAMLTGELKKALIEVLQPLIAEHQARRKEVTDEIVKEFMTPRKLAAALEHHHHHH	soluble
MPNSSIQIWLQRQIALRTFPPNREDWYVKNGFGNSEMSLEERFASFVEAIRQEDSPYHEQLSGIDFQRFEIEVTLANQKTCMTEVIGFQNNSNQSSSTPNEKFKAVGKGKHVIYFTGIGTQYQDCLIDIAKAVQITGAHYYAFEYPGMRKLGGEVLEVNDMVNTGIALANTLLEKGISIDDILFQGDSFGAAVAKKVSDQFKLQSNVTVRCILNNTFSTFQAAVEGNLGAFSTLRYTVRPLLRYTGWDIRPGEGYGQDTPYQIHVNHTGDLTLGAGHATLAESIESNSQLEHFVDPCPEEYRIKRDIYKQWHWASLSEQGITFLETKYGRNSDGQLDTHLADLYLLKYDTGLGVYESFICKYLEDSNDYIASHPQKLSLDELPRPLESETVSLRQLIVSVLPSRPSIAGFFSRSTPVIEEVETEKQEQKSIELK	soluble
MPPANGKKGKKGGAAKAAAPEEDFDAILAEMQLADAKTAAKEATKKDAKGGKGKANGSAAATAAPEEAKQAWQAEIAAMKPIDEQFPDGKFPHGIDESPYYLKGKDGRVATDRESNEEKKALDISYEEVWQDYRRSAEAHRQVRKYVKSWIKPGMTMIEICERLETTSRRLIKEQGLEAGLAFPTGCSLNHCAAHYTPNAGDTTVLQYGDVCKIDYGIHVRGRLIDSAFTVHFDPKFDPLVEAVREATNAGIKESGIDVRLCDVGEIVEEVMTSHEVELDGKSYVVKPIRNLNGHSIAQYRIHAGKTVPIVKGGEQTKMEENEIYAIETFGSTGKGYVHDDMETSHYMKNFELADEKIPLRLQKSKGLLNLIDKNFATLAFCRRWIDRLGETKYLMALKDLCDKGIVDPYPPLCDVKGCYTAQWEHTILMRPTVKEVVSRGDDY	not soluble
MPPAVPAAAATARQSASGRERNFKDKDKPESVRNSNIVAAKAVADAVRTSLGPRGMDKMIQSGNGDVTITNDGATILNQMSVIHPTAKMLVELSKAQDIEAGDGTTTVVVMAGALLDAAQNLLSKGIHPTTISESFQSAAAEAEKILDEMSSPVDLSNDALLNKMATTSLNSKVVSQHSWLLAPMAVNAVKKIINSENDSNVNLKMIKIIKKMGDTVEESELIEGALIDQKTMGRGAPTRIEKAKIGLIQFQISPPKTDMENQVIITDYAQMDRALKEERQYLLEICKQIKAAGCNVLLIQKSILRDAVNELALHFLAKMKIMCIKDIEREDIEFYSRILGCRPVASVDHFNADALGYADLVEEIPTGGDGKVIKVTGVQNPGHAVSILLRGSNKLVLEEADRSIHDALCVIRCLVKKKALLPGGGAPEMEIAVKLRNLAQTQHGATQYCWRAFADALELIPYTLAENAGLSPIHTVTELRNNHANGNSSYGVNVRKGYVTDMVEEDVVQPLLVTASAIKQASECVRSILKIDDIVMAVR	not soluble
MPPSLRKAVAAAIGGGAIAIASVLITGPSGNDGLEGVSYIPYKDIVGVWTVCHGHTGKDIMLGKTYTKAECKALLNKDLATVARQINPYIKVDIPETTRGALYSFVYNVGAGNFRTSTLLRKINQGDIKGACDQLRRWTYAGGKQWKGLMTRREIEREVCLWGQQ	not soluble
MPQFETHRLVKHSPDRMYDLVADVEKYPQFLPLCEALSVRSRKERDGKVLLVADMTVGYKAIRETFTTQVLLNPAERAIDVKYIDGPFRYLDNRWRFEAAENGGTTIHFFIDYEFKNRLLGAVMGSMFDRAFRMFAEAFETRADKIYTDPALEHHHHHH	soluble
MPQTDKQVCIPPELPELLKQFTKDAIRTQPPDLIQWAAEYFGAMSRGEIPPVRERSEQIPLSNWAELTPELLKVLHSRVAGRLIIHADELAQMWKVLNLPTDLFNSVMNVGRFTEEIEWLKFLALACSSLGVTIAKTLKIVCEVLSSDHDGGPPRIPFSTFQFLYTYIAEVDGEISSSHVSRMLNYIEQEVIGPDGLIKVNDFTQNPRVRLE	not soluble
MPQYKLYYFNLRGWAEPARQLFKLAHVEFEDVRIENGTPEWGALKPKTPFGQLPFLSVDGFEIPQSAAILRYLAKKFGYAGKTSEEEAWVDAIVDQFKDFVTPLRQLIMAQRSGNAEEIERIQKEVFAPARDTFFKILNGILEKSKSGFLVGDGVTWADLVIADILTTMEMLGVFDKHGEEQKLAALREKVNEIPEIKEHNSSRPDSVV	not soluble
MPRILFTVPPFPVFIAAGEGVFKKGETHVKRVFSVFDLIYVKQGTLYITENETSFSVEGGEYILLSPGLEHYGTKGSDEATSYYWLHFDEHRYEFTAKGGSNWSELQQEKGSFEELARYGLALPRKGKVQRPQFMAQQFEKLIDYSAENSDLPLRKQILFEELMLHLQKEAFQIPSAKERVAWEAARYLQEHYKEKTTIKDLSLALHYHQDYVSRCMQQVLGVTPAQYTNRVRMTEAKRLLSSTNDKMGVIAETVGMEDPTYFSKLFKQIEGISPIEYRKIVSRKVQ	not soluble
MPRRALGWTAEVLKRLHGINYPITKDTLREKLAGMSIRGVPVERVIDEIEVDKFDTPRDVLHYIAEAVHKLEERGEIPTETRKGIRWAAEVLKRIHGEHFPMDKQKLKEKLAGLYWRGVPIEKVIDAMEVEQVESPADLLHQLSIAIKKLEEQGEVA	not soluble
MPRRPGTPRGPQGGRRLLVISASMGAGHDTVAAELVRRARERGDTAQTVDVLALLPYGLGAVLRCFYRGSVRHFPWAYAALYRLFLRPGAGRRPSGTPLARLAGDRLRELAARTGADVVVPVFHLGAQLTGHLRDRGLLPVPSVVLVIDFELHRQWLHPGNDHCLCLTEEAAREARGNTGTPAETCGPVVAPEFSAGRVPGAAQWRETFDRLGPGRPAVVLSAGAWGVGSHLDATVRLLVDHGYLPVVLCGDNQRLRRTLSGTPGVLALGWVTDMPGLLHAARALIDNAAGQTAVQALAAGLPVVGHRPIPGHGADGVRRMAALGVSEVAEDRTALLEALARLTAPGPDRRRRIAAGRALFTGNADALTLVTDLADAARADVRRLEHHHHHH	not soluble
MPRYIVRPFHLLNLPTVVISEVLNHLKNIDICILRTTSRKIRTIGKLSARRKQTYLVGHRRLDLTINARFGKFKVESGARDGTVALYAGYDINRVLDITSDFFDYLDIYIYLYIIDNHSDKDAKKLVEVIVTKGIYVHYLRFDGEQISHELFREMLKCDVNELRIHLRTQHTVELSDIDLMVSCKCVALTRITIPSDYLNVLLKKWQANRNLTFFSASGMALTLDKSIILEGTNSEQGSEEYNFYIKCNNRKTALLKILHNSFRLGNVY	not soluble
